Data published in article PMC12204462.
pKd: −log10 of the molar value.

Tested on: AsCas12a
Assay: BLI
Details: not stated in material

Row | Substance | pKd
1 | cDNA with 5' handle | > 7.43
2 | crRNA (BLI) | 8.43
3 | ΨDNA (cDNA with 3' handle; BLI) | 7.61
